Results: patent publication US20170247475A1 (Boehringer Ingelheim, published 2017)

T1: human PIGF (human, UniProt P49763-2 21-149, limits assumed)
T1 construct: also called hPIGF; PLGF
T1 sequence (looked up): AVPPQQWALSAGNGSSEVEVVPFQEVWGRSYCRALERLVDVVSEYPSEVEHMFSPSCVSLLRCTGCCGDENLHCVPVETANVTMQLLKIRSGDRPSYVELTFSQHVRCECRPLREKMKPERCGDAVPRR

T2: human VEGF-B (human, UniProt P49765-2 22-188, limits assumed)
T2 construct: also called hVEGF-B
T2 sequence (looked up): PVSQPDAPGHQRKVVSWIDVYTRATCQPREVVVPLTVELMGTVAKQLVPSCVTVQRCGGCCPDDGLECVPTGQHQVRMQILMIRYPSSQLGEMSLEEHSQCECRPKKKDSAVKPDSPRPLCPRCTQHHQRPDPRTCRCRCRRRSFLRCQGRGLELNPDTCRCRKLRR

T3: human VEGF-C (human, UniProt P49767 103-227)
T3 construct: also called hVEGF-C
T3 sequence (looked up): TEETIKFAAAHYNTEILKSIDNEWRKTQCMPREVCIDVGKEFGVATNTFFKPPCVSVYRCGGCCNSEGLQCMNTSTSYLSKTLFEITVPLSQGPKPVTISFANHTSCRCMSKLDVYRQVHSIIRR

T4: human VEGF-D (human, UniProt O43915 93-201)
T4 construct: also called hVEGF-D
T4 sequence (looked up): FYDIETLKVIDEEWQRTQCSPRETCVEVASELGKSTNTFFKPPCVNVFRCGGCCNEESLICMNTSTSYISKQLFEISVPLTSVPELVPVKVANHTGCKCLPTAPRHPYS

T5: recombinant human VEGF121 (human, UniProt P15692-9 27-147)
T5 construct: also called rhVEGF121; hVEGF121
T5 sequence (looked up): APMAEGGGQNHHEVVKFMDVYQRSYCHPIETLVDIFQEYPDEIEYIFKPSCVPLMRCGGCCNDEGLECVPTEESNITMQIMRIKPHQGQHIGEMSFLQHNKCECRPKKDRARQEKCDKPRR

B1: recombinant human VEGF109 (ligand, UniProt P15692 207-315, looked up)
chain: APMAEGGGQNHHEVVKFMDVYQRSYCHPIETLVDIFQEYPDEIEYIFKPSCVPLMRCGGCCNDEGLECVPTEESNITMQIMRIKPHQGQHIGEMSFLQHNKCECRPKKD
notes: also called rhVEGF109
B2: VEGFBII010 (VHH)
chain: EVQLVESGGGLVQTGDSLRLSCEVSGRTFSSYSMGWFRQAQGKEREFVVAISKGGYKYDSVSLEGRFTISKDNAKNTVYLQINSLKPEDTAVYYCASSRAYGSSRLRLADTYEYWGQGTQVTVSSGGGGSGGGGSGGGGSGGGGSGGGGSGGGGSGGGGSEVQLVESGGGLVQTGDSLRLSCEVSGRTFSSYSMGWFRQAQGKEREFVVAISKGGYKYDSVSLEGRFTISKDNAKNTVYLQINSLKPEDTAVYYCASSRAYGSSRLRLADTYEYWGQGTQVTVSS
notes: bivalent VHH in one chain; also called VEGFBII23B04-35GS-23B04; homodimeric VEGFBII23B04
B3: KLH conjugated VEGF165 (ligand, human, UniProt P15692-4 27-191, looked up)
chain: APMAEGGGQNHHEVVKFMDVYQRSYCHPIETLVDIFQEYPDEIEYIFKPSCVPLMRCGGCCNDEGLECVPTEESNITMQIMRIKPHQGQHIGEMSFLQHNKCECRPKKDRARQENPCGPCSERRKHLFVQDPQTCKCSCKNTDSRCKARQLELNERTCRCDKPRR
modifications: conjugated to mariculture keyhole limpet hemocyanin (mcKLH) with EDC
notes: also called VEGF165-KLH
B4: recombinant mouse VEGF164 (ligand, UniProt Q00731-2 27-190, looked up)
chain: APTTEGEQKSHEVIKFMDVYQRSYCRPIETLVDIFQEYPDEIEYIFKPSCVPLMRCAGCCNDEALECVPTSESNITMQIMRIKPHQSQHIGEMSFLQHSRCECRPKKDRTKPENHCEPCSERRKHLFVQDPQTCKCSCKNTDSRCKARQLELNERTCRCDKPRR
notes: biotinylated in the mVEGFR2 AlphaScreen; also called rmVEGF164; mVEGF164
B5: VEGFBII022 (VHH)
chain: EVQLVESGGGLVQTGDSLRLSCEVSGRTFSSYSMGWFRQAQGKEREFVVAISKGGYKYDSVSLEGRFTISKDNAKNTVYLQINSLKPEDTAVYYCASSRAYGSSRLRLADTYEYWGQGTQVTVSSGGGGSGGGSEVQLVESGGGLVQPGGSLRLSCVASGIRFMSMAWYRQAPGKHRELVARISSGGTTAYVDSVKGRFTISRDNSKNTVYLQMNSLKAEDTAVYYCNTFSSRPNPWGAGTQVTVSS
notes: biparatopic bivalent VHH in one chain; also called VEGFBII23B04-9GS-5B05

Columns and labels:
human VEGFR1-Fc chimera [1] = biological target: T6, human VEGFR1-Fc chimera (human, UniProt P17948 27-756); assay: ELISA, coated VEGF109
T6 construct: bought (R&D Systems); also called hVEGFR1-Fc
Method: (§1) Expression is induced by addition of 1 mM IPTG and allowed to continue for 4 hours at 37° C. Cells are harvested by centrifugation and lysed by sonication of the cell pellet. Inclusion bodies are isolated by centrifugation. […] The refolded protein is purified by ion exchange chromatography using a MonoQ5/50GL (Amersham BioSciences) column followed by gel filtration with a Superdex75 10/300 GL column (Amersheim BioSciences). […] To this end, 1 μg/mL of recombinant human VEGF109 is immobilized overnight at 4° C. in a 96-well MaxiSorp plate (Nunc, Wiesbaden, Germany). Wells are blocked with a casein solution (1%).

human VEGFR2-Fc chimera = biological target: T7, human VEGFR2-Fc chimera (human, UniProt P35968 20-764); assay: ELISA, coated VEGF109
T7 construct: bought (R&D Systems); also called hVEGFR2-Fc; VEGFR2-huFc
Method: as §1

human PIGF = biological target: T1, human PIGF; assay: binding ELISA on coated PIGF
Method: (§2) Binding to VEGFB, VEGFC, VEGFD and PIGF is assessed via a solid phase binding ELISA. In brief, VEGFB, VEGFC, VEGFD and PIGF (R&D Systems, Minneapolis, Minn., USA) are coated overnight at 4° C. at 1 μg/mL in a 96-well MaxiSorp plate (Nunc, Wiesbaden, Germany). Wells are blocked with a casein solution (1% in PBS). […] As positive controls serial dilutions of the appropriate receptors are taken along and detected with horseradish peroxidase (HRP)-conjugated goat anti-human IgG, Fc specific antibody (Jackson Immuno Research Laboratories Inc., West Grove, Pa., USA) and a subsequent enzymatic reaction in the presence of the substrate TMB (3,3′,5,5′-tetramentylbenzidine) (Pierce, Rockford, Ill., USA).

[2] = biological target: T8, recombinant human VEGF165 (human, UniProt P15692-4 27-191); assay: hVEGF165/hVEGFR2-Fc competition ELISA
T8 construct: also called hVEGF165; rhVEGF165

[3] = biological target: T8, recombinant human VEGF165; assay: VEGF165/hVEGFR1-Fc competition ELISA
[4] = biological target: T8, recombinant human VEGF165; assay: kd1; SPR Biacore T100, hVEGF165 on chip, Two State Reaction model
Method: (§3) Samples are injected for 2 min and allowed to dissociate up to 20 min at a flow rate of 45 μI/min. In between sample injections, the chip surface is regenerated with 100 mM HCl. HBS-EP+(Hepes buffer pH7.4+EDTA) is used as running buffer. Binding curves are fitted using a Two State Reaction model by Biacore T100 Evaluation Software v2.0.1.
(§4) ^{(a)}KD = kd1/kₐ₁ * (kd2/(kd2 + kₐ₂)) ^{(b)}Curves are fitted using a Two State Reaction model by Biacore T100 Evaluation Software v2.0.1

[5] = biological target: T8, recombinant human VEGF165; assay: SPR Biacore T100, hVEGF165 on chip, Two State Reaction model
Method: as §3, §4

[6] = biological target: T8, recombinant human VEGF165; assay: VEGF165/hVEGFR1-Fc competition AlphaScreen
Method: (§5) Finally, streptavidin donor beads (20 μg/ml) are added and after 1 hour of incubation in the dark, fluorescence is measured on the Envision microplate reader.

human VEGF-B = biological target: T2, human VEGF-B; assay: binding ELISA on coated VEGFB
Method: as §2

[7] = biological target: T8, recombinant human VEGF165; assay: hVEGF165/hVEGFR2-Fc competition AlphaScreen
Method: as §5

[8] = biological target: B4; assay: binding ELISA on coated mouse VEGF164
Method: (§6) Cross-reactivity to mouse VEGF164 is determined using a binding ELISA. […] Wells are blocked with a casein solution (1% in PBS). […] A mouse VEGF164 reactive mAb is included as positive control.

[9] = biological target: T8, recombinant human VEGF165; assay: SPR Biacore T100, Two State Reaction model; KD = kd1/ka1 * (kd2/(kd2 + ka2))
Method: as §3, §4

human VEGF-C = biological target: T3, human VEGF-C; assay: binding ELISA on coated VEGFC
VEGF [10] = assay: cell-based or functional assay
human VEGF-D [11] = biological target: T4, human VEGF-D; assay: binding ELISA on coated VEGF-D
Method: as §2

VEGF [12] = assay: cell-based or functional assay; remark: listed apart in the source
[13] = biological target: T5, recombinant human VEGF121; assay: binding ELISA, coated rhVEGF121
Method: Binding to recombinant human VEGF121 is assessed via a solid phase binding ELISA. Briefly, recombinant human VEGF121 (R&D Systems, Minneapolis, Minn., USA) is coated overnight at 4° C. at 1 μg/mL in a 96-well MaxiSorp plate (Nunc, Wiesbaden, Germany). Wells are blocked with a casein solution (1% in PBS).

[14] = biological target: T8, recombinant human VEGF165; assay: ka1; SPR Biacore T100, hVEGF165 on chip, Two State Reaction model
Method: as §3, §4

[15] = biological target: T8, recombinant human VEGF165; assay: binding ELISA, coated rhVEGF165
human VEGFR1-Fc chimera [16] = biological target: T6, human VEGFR1-Fc chimera; assay: ELISA, coated KLH conjugated VEGF165
mouse VEGFR2-huFc = biological target: T9, mouse VEGFR2-huFc (mouse, UniProt P35918 20-762, limits assumed); assay: mVEGF164/mVEGFR2-hFc competition AlphaScreen, unlabelled mVEGF164 as competitor
T9 construct: also called mVEGFR2-huFc; mVEGFR2-hFc

human VEGF-D [17] = biological target: T4, human VEGF-D; assay: binding ELISA on coated VEGF D
Method: as §2

[18] = biological target: T8, recombinant human VEGF165; assay: VEGF/VEGFR1 competition AlphaScreen
Method: as §5

[19] = biological target: B4; assay: mVEGF164/mVEGFR2-hFc competition AlphaScreen
Method: Finally, streptavidin donor beads (20 μg/ml) are added and after 1 hour of incubation fluorescence is measured on the Envision microplate reader.

[20] = biological target: B4; assay: binding ELISA, coated rmVEGF164
Method: as §6

[21] = biological target: T8, recombinant human VEGF165; assay: VEGF/VEGFR2 competition AlphaScreen
Method: as §5

T6 sequence (P17948 27-756, change not shown): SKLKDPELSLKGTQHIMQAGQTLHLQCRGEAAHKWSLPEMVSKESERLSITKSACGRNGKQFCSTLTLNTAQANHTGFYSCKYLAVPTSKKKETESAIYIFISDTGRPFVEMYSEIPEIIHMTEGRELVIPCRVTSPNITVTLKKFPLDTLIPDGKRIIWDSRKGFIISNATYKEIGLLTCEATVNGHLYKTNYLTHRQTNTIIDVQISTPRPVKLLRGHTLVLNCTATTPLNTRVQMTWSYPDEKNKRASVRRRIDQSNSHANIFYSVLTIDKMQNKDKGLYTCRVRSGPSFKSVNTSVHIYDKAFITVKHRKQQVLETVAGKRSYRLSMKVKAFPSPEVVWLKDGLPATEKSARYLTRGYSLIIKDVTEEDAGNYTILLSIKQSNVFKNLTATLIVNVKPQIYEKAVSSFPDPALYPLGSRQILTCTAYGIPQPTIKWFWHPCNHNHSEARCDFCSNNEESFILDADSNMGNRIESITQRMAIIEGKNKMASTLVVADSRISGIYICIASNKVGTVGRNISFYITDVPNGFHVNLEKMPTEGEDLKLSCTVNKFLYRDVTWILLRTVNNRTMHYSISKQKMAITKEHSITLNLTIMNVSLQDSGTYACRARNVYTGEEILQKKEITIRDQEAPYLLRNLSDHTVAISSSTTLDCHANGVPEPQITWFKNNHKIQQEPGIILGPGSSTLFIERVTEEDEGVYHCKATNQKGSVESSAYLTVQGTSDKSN
T7 sequence (P35968 20-764, change not shown): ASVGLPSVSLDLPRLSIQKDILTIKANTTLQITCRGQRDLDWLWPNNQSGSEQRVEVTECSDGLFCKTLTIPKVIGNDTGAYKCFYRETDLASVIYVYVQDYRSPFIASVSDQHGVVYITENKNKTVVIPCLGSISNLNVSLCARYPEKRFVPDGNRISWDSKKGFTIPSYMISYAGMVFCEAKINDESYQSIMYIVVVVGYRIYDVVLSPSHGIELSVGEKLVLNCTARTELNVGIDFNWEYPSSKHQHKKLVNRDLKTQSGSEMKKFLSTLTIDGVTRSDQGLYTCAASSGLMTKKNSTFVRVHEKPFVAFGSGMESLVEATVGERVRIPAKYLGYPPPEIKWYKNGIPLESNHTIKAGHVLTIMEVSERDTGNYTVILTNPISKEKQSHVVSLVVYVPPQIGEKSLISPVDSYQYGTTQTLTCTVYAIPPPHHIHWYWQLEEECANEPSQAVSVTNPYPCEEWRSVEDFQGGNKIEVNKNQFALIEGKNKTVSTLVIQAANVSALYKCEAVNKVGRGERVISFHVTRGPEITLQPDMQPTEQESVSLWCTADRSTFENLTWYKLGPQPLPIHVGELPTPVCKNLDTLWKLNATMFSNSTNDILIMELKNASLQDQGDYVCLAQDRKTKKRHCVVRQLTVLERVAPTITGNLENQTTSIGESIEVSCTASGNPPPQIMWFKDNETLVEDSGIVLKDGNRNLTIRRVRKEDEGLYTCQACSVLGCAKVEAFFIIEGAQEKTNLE
T9 sequence (P35918 20-762 limits assumed): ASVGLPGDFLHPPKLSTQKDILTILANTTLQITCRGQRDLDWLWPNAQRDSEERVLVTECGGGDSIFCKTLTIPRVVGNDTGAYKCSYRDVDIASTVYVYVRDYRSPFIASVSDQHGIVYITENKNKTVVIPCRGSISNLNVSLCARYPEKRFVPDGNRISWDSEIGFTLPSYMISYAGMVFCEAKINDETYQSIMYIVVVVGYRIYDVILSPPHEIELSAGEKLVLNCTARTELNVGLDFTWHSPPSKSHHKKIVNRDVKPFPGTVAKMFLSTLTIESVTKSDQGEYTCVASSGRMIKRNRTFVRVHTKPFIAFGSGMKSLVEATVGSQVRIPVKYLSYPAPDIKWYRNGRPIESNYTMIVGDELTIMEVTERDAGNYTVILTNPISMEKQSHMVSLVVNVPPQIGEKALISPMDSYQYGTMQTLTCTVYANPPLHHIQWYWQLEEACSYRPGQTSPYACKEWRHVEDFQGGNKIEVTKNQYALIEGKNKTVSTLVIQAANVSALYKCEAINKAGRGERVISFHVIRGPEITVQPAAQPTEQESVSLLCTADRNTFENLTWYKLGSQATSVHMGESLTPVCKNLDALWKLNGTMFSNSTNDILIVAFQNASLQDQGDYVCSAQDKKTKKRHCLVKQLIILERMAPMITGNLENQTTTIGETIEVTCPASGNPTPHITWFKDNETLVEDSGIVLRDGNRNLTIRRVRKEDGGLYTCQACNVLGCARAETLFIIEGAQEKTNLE

Row | binding result (human PIGF) | % inhibition [2] | IC50 [2] | % inhibition [3] | IC50 [3] | koff [4] | ka2 [5] | kd2 [5] | % inhibition [6] | IC50 [6] | binding result (human VEGF-B) | % inhibition [7] | IC50 [7] | Kd [9] | binding result (human VEGF-C) | % inhibition, VEGF HUVEC proliferation assay (VEGF [10]) | IC50 (nM), VEGF HUVEC proliferation assay (VEGF [10]) | % inhibition, VEGF HUVEC Erk phosphorylation assay (VEGF [12]) | IC50 (nM), VEGF HUVEC Erk phosphorylation assay (VEGF [12]) | EC50 [13] | Binder | further results
1 |  |  |  |  |  |  |  |  |  |  |  |  |  |  |  |  |  |  |  |  | B1 | binding result (human VEGFR1-Fc chimera [1]): binds; binding result (human VEGFR2-Fc chimera): binds
2 | no binding (tested: 5e-7 M) | 100% | 0.049 nM | 67% | 0.0735 nM | 0.017 s⁻¹ | 0.029 s⁻¹ | 0.00013 s⁻¹ | 70% | 0.021 nM | no binding (tested: 5e-7 M) | 100% | 0.016 nM | 0.16 nM | no binding (tested: 5e-7 M) | 95% | 0.22 nM | 92% | 0.19 nM | 0.92 nM | B2 | binding result [8]: binds; binding result (human VEGF-D [11]): no binding (tested: 5e-7 M); kon [14]: 450000 M⁻¹ s⁻¹; EC50 [15]: 0.428 nM
3 |  |  |  |  |  |  |  |  |  |  |  |  |  |  |  |  |  |  |  |  | B3 | binding result (human VEGFR1-Fc chimera [16]): binds
4 |  |  |  |  |  |  |  |  |  |  |  |  |  |  |  |  |  |  |  |  | B4 | IC50 (mouse VEGFR2-huFc): 0.05 nM
5 | no binding (tested: 5e-7 M) | 100% | 0.164 nM | 89% | 0.225 nM | 0.0091 s⁻¹ | 0.014 s⁻¹ | 0.00026 s⁻¹ | 98% | 0.009 nM | no binding (tested: 5e-7 M) | 100% | 0.007 nM | 0.14 nM | no binding (tested: 5e-7 M) | 100% | 0.34 nM | 94% | 0.18 nM | 0.54 nM | B5 | binding result (human VEGF-D [17]): no binding (tested: 5e-7 M); % inhibition [18]: 100%; IC50 [18]: 0.008 nM; IC50 [19]: 108 nM; EC50 [20]: 0.464 nM; IC50 [21]: 0.007 nM; kon [14]: 1.2e+06 M⁻¹ s⁻¹; EC50 [15]: 0.224 nM
